# Experimental data from US20240124607A1.
# B1: mAB0621 mouse surrogate duobody TriNKET (bispecific antibody, part only; not given: NKG2D arm, mouse constant regions, V domains shown, part only)
# VH: QVQLVQSGAEVKKPGASVKVSCKASGYTFTAYTIHWVRQAPGQCLEWMGYINPSSGYTEYNQKFKDRTTLTADTSISTAYMELSRLRSDDTAVYYCTREGGLLWFDYWGQGTLVTVSS
# VL: DIVMTQSPDSLAVSLGERATINCKSSHSLLYGNFQNNYLAWYQQKPGQPPKLLIYWASTRESGVPDRFSGSGSGTDFTLTISSLQAEDVAVYYCQQYYSYPYTFGCGTKLEIK
# Target: human CEACAM5 on cells (human) (UniProt P06731)
# Assay: flow cytometry, hCEACAM5-B16F10 cells
# Chain of human CEACAM5 on cells (human) (P06731 35-685 limits assumed): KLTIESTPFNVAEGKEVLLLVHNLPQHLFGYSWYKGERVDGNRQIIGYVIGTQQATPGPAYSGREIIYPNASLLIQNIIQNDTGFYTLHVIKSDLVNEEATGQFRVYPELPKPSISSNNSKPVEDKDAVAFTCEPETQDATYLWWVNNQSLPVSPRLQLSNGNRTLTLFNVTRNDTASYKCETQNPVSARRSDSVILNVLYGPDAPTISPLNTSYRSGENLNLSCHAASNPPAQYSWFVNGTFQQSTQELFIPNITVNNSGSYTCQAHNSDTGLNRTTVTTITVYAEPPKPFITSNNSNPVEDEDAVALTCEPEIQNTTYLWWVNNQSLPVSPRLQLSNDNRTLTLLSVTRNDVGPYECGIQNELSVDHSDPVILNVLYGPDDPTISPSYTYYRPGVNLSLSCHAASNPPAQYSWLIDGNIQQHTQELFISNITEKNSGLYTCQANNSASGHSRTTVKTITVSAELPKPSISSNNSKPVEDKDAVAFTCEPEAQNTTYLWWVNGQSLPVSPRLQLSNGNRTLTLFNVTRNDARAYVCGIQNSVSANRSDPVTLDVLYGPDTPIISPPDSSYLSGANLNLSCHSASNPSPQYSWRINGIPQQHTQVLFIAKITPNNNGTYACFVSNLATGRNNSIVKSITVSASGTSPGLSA
binder,measurement,value
B1,EC50,21.8 nM
